Reference: PMC10542384

Biological target: RNF111 (Arkadia) (UniProt Q6ZNA4)
Assay: proximity ligation assay (PLA)
Conditions: ARKL1 KO U2OS cells complemented with HA-ARKL1WT (n = 28), HA-ARKL1SIM* (n = 20) or vector (n = 17); antibodies against HA and RNF111; parent: est. 9.0; read off a plot

UniProt Q6ZNA4, sequence (Q6ZNA4 whole entry): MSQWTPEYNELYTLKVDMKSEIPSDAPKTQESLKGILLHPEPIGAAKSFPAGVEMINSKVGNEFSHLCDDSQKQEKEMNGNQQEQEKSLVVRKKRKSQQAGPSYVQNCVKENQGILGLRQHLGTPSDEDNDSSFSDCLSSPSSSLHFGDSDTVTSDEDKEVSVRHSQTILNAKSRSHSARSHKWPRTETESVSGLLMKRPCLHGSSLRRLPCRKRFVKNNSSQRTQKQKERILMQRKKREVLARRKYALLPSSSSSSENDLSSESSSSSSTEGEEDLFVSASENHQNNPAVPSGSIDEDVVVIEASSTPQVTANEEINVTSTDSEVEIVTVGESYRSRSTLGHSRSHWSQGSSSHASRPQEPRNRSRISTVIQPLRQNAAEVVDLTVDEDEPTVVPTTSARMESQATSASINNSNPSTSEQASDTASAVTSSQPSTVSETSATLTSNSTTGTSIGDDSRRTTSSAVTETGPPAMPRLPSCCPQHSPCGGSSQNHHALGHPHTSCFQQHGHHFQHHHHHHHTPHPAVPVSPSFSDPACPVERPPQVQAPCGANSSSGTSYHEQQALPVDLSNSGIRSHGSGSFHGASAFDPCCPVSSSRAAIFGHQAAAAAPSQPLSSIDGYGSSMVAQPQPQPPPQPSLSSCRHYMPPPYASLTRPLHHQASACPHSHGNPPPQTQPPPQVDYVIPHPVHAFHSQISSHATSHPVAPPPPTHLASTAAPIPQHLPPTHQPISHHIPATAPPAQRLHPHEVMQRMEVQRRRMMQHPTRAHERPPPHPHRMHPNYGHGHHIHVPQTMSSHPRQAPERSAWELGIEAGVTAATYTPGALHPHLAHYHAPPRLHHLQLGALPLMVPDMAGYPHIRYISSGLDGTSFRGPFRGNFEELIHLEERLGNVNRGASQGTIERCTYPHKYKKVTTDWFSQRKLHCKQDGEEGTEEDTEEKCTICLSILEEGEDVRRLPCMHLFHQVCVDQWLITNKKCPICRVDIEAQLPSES

Substance: HA-ARKL1 wild type (from UniProt Q96B23) SIM*
- response (PLA foci per cell): 1
